Assay [1] deals with HLA-Cw3 on 721.221 cells. The assay is described as follows: flow cytometry on cells (Ig-fusion protein staining).
Assay [2] concerns the target HLA-Cw6 on 721.221 cells. The description is as above.

For “KIR2DS2-Ig (from UniProt P43631) KYK/KFK”, the response worked out at 114 MFI in assay [1] and 1.05 MFI in assay [2].

Source of the values: PMC2812487.
